# Test results as given in publication PMC7077851, “Comparative analysis of the human serine hydrolase OVCA2 to the model serine hydrolase homolog FSH1 from S. cerevisiae” (PLoS ONE, 2020).
# Assays:
# Test in all cases: purified protein
# Format in all cases: biochemical, Homo sapiens
# purified protein [1] = substrate: CC(=O)Oc1ccc([N+](=O)[O-])cc1; settings: PBS, 0.1 mg/mL acetylated BSA, 1% acetonitrile, 25 °C
# purified protein [2] = substrate: CCCC(=O)Oc1ccc([N+](=O)[O-])cc1; settings: PBS, 0.1 mg/mL acetylated BSA, 1% acetonitrile, 25 °C
# purified protein [3] = substrate: CCCCCCCC(=O)Oc1ccc([N+](=O)[O-])cc1; settings: PBS, 0.1 mg/mL acetylated BSA, 1% acetonitrile, 25 °C
# purified protein [4] = substrate: CCCCCCCCCC(=O)Oc1ccc([N+](=O)[O-])cc1; settings: PBS, 0.1 mg/mL acetylated BSA, 1% acetonitrile, 25 °C
# purified protein [5] = substrate: CCCCCCCCCCCC(=O)Oc1ccc([N+](=O)[O-])cc1; settings: PBS, 0.1 mg/mL acetylated BSA, 1% acetonitrile, 25 °C
# purified protein [6] = substrate: CCCCCCCCCCCCCC(=O)Oc1ccc([N+](=O)[O-])cc1; settings: PBS, 0.1 mg/mL acetylated BSA, 1% acetonitrile, 25 °C
# purified protein [7] = substrate: COCC(=O)OCOc1ccc2c(c1)Oc1cc(OCOC(=O)COC)ccc1C21OC(=O)c2ccccc21; settings: PBS, 0.1 mg/mL acetylated BSA, 25 °C
# purified protein [8] = substrate: COCCOCC(=O)OCOc1ccc2c(c1)Oc1cc(OCOC(=O)COCCOC)ccc1C21OC(=O)c2ccccc21; settings: PBS, 0.1 mg/mL acetylated BSA, 25 °C
Protein,Km (purified protein [3]) [µM],kcat/Km (purified protein [3]) [M⁻¹ s⁻¹],Km (purified protein [4]) [µM],kcat (purified protein [4]) [s⁻¹],kcat/Km (purified protein [4]) [M⁻¹ s⁻¹],Km (purified protein [5]) [µM],kcat (purified protein [5]) [s⁻¹],kcat/Km (purified protein [5]) [M⁻¹ s⁻¹],Km (purified protein [6]) [µM],kcat (purified protein [6]) [s⁻¹],kcat/Km (purified protein [6]) [M⁻¹ s⁻¹],further results
OVCA2 (Homo sapiens) (protein) MAAQRPLRVLCLAGFRQSERGFREKTGALRKALRGRAELVCLSGPHPVPDPPGPEGARSDFGSCPPEEQPRGWWFSEQEADVFSALEEPAVCRGLEESLGMVAQALNRLGPFDGLLGFSQGAALAALVCALGQAGDPRFPLPRFILLVSGFCPRGIGFKESILQRPLSLPSLHVFGDTDKVIPSQESVQLASQFPGAITLTHSGGHFIPAAAPQRQAYLKFLDQFAE,6.1 ± 5.7,3800 ± 1800,3.84 ± 1.1,0.025 ± 0.001,6800 ± 1000,29 ± 19,0.076 ± 0.01,2700 ± 950,17 ± 14,0.076 ± 0.01,4500 ± 1800,Km (purified protein [1]): 1400 ± 600 µM; kcat (purified protein [1]): 0.26 ± 0.03 s⁻¹; kcat/Km (purified protein [1]): 200 ± 50 M⁻¹ s⁻¹; Km (purified protein [2]): 2900 ± 100 µM; kcat (purified protein [3]): 0.023 ± 0.005 s⁻¹; Km (purified protein [7]): 12 ± 5 µM; kcat (purified protein [7]): 0.0013 ± 0.0002 s⁻¹; kcat/Km (purified protein [7]): 100 ± 40 M⁻¹ s⁻¹; Km (purified protein [8]): 3.7 ± 0.8 µM; kcat (purified protein [8]): 0.0012 ± 0.0001 s⁻¹; kcat/Km (purified protein [8]): 330 ± 70 M⁻¹ s⁻¹
OVCA2 (Homo sapiens; D179A) (protein) MAAQRPLRVLCLAGFRQSERGFREKTGALRKALRGRAELVCLSGPHPVPDPPGPEGARSDFGSCPPEEQPRGWWFSEQEADVFSALEEPAVCRGLEESLGMVAQALNRLGPFDGLLGFSQGAALAALVCALGQAGDPRFPLPRFILLVSGFCPRGIGFKESILQRPLSLPSLHVFGDTAKVIPSQESVQLASQFPGAITLTHSGGHFIPAAAPQRQAYLKFLDQFAE,2.0 ± 0.2,0.5 ± 0.3,3.2 ± 1.5,3.7e-05 ± 4e-06,11 ± 3,1.1 ± 0.6,7.3e-05 ± 8e-06,69 ± 20,5.7 ± 1.9,4.6e-05 ± 4e-06,7.8 ± 1.4,–
